Assay results taken from doi:10.1101/327320.

How the values were obtained:
Experiment in all cases: EMSA
[1] = target: T1, Hrq1-K318A (Saccharomyces cerevisiae, UniProt Q05549 1-1077, K318A)
T1 sequence: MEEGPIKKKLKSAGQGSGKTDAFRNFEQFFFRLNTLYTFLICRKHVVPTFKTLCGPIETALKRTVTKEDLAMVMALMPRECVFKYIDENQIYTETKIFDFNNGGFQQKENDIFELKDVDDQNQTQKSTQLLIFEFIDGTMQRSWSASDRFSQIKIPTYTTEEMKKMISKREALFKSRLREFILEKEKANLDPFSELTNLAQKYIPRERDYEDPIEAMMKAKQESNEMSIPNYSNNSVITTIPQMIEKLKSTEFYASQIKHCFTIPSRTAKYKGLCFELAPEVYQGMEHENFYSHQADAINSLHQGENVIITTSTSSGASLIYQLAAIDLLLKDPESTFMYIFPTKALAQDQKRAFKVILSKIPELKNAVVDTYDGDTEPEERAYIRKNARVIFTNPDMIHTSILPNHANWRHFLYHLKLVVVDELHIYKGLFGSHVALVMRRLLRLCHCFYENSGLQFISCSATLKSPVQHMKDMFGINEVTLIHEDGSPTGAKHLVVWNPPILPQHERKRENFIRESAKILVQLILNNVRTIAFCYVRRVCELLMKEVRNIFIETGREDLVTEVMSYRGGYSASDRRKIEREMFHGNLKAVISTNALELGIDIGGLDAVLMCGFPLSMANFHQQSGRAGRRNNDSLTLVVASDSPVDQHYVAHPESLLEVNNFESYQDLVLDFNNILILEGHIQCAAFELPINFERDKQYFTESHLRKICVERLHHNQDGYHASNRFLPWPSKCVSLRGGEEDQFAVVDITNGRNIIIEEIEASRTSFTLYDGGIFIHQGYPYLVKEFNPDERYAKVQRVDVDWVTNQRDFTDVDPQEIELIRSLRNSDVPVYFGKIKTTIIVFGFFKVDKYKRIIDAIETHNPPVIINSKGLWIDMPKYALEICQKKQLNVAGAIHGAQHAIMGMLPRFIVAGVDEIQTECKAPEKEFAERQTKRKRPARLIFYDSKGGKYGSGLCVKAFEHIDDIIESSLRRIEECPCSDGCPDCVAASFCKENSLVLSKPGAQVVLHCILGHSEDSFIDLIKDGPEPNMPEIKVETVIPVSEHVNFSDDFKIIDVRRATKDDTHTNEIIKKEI

[2] = target: T2, Pif1 (Saccharomyces cerevisiae, UniProt P07271 1-859)
T2 sequence: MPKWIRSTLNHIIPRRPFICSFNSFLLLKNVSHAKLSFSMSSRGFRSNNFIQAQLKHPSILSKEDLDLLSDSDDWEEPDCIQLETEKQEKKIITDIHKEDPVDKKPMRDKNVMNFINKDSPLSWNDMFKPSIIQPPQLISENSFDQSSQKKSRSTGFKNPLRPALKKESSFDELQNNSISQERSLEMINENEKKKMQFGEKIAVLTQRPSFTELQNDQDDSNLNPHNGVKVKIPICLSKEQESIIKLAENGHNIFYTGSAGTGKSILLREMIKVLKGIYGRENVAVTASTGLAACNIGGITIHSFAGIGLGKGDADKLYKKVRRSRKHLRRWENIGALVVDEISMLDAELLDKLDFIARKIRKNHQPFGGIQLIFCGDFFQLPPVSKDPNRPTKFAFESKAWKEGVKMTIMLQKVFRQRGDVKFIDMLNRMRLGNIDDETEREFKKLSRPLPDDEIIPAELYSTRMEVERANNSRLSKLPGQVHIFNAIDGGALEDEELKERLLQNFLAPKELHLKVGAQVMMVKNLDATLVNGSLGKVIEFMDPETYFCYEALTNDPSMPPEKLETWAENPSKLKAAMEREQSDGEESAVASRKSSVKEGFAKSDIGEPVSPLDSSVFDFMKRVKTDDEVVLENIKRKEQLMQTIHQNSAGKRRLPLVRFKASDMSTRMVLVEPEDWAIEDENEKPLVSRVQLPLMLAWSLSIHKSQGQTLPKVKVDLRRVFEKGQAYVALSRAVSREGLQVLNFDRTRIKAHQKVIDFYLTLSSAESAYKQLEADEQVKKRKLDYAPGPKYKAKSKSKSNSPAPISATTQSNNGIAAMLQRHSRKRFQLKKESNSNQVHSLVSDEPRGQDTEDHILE

[3] = target: T3, Pif1-K264A (Saccharomyces cerevisiae, UniProt P07271 1-859, K264A)
T3 sequence: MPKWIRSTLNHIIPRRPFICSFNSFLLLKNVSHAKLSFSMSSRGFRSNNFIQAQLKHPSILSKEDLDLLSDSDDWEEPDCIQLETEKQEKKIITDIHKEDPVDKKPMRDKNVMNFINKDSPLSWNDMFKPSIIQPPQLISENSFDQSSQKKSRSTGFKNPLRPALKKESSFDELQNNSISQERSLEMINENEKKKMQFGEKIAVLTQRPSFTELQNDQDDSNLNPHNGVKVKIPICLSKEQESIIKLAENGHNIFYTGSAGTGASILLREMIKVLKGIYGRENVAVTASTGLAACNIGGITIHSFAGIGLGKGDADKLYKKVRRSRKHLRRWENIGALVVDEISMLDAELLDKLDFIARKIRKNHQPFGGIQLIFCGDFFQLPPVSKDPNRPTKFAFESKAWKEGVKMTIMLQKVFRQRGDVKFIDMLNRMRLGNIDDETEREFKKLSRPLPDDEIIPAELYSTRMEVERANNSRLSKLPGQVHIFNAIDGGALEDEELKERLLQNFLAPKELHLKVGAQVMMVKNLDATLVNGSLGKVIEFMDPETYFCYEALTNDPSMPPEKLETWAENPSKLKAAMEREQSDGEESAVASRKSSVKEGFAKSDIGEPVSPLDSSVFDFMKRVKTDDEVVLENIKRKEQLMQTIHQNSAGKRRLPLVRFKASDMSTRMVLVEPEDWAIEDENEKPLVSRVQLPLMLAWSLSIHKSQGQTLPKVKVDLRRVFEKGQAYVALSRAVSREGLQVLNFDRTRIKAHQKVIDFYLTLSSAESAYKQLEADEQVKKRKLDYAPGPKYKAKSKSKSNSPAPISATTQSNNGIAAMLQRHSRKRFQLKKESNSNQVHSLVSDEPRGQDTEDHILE

[4] = target: T4, Hrq1 (Saccharomyces cerevisiae, UniProt Q05549 1-1077)
T4 sequence: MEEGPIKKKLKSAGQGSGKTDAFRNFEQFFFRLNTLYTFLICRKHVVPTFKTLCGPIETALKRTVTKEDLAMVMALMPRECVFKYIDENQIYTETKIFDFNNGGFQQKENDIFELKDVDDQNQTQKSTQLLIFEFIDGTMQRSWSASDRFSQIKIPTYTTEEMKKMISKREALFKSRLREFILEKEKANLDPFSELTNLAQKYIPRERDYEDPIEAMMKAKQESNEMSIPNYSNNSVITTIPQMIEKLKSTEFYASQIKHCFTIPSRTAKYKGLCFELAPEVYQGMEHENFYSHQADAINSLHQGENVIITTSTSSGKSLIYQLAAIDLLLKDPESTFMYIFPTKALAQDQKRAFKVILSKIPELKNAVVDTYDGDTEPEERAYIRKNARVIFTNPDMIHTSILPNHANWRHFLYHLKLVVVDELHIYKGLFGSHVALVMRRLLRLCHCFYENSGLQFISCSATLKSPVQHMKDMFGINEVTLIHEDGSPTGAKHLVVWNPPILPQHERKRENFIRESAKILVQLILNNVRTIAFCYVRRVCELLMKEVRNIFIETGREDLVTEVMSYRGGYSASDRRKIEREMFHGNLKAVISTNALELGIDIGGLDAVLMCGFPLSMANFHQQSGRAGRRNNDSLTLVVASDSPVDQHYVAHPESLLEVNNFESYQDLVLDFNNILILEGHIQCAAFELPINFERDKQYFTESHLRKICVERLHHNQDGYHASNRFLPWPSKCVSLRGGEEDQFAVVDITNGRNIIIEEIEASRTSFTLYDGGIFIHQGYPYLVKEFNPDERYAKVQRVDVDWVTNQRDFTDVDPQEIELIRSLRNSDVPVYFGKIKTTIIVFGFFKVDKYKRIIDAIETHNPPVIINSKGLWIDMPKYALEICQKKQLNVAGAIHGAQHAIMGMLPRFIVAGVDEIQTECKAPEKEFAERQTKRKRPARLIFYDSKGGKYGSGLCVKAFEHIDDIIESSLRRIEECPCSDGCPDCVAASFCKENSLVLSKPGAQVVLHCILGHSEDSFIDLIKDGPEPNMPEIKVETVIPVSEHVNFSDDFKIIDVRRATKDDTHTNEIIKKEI

[5] = target: Hrq1;Pif1 (Saccharomyces cerevisiae;Saccharomyces …, UniProt Q05549;P07271 1-1077;1-859, |)

## CGCCATGCTGATCCGTGTGGTGTGTGTGGG (ssDNA) [Tel30]
[1]
  Kd: 105 nM
[2]
  Kd: 33.5 nM
[3]
  Kd: 41.2 nM
[4]
  Kd: 16.1 nM

## TGTGGTGTGTGTGGG (ssDNA) [Tel15]
[2]
  binding result: binds
[3]
  binding result: binds

## GTGTGGGTGTGGTGTGGGTGTGGTGTGGGTGTGTGGTGTGGTGTGTGTGG (ssDNA) [Tel50]
[5]
  binding result: binds

## TTTTTTTTTTTTTTTTTTTTTTTTT (ssDNA) [MB463 poly(dT) 25 nt]
[4]
  Kd: ~35 nM

## TTTTTTTTTTTTTTTTTTTTTTTTT (ssDNA, 3'-terminal T25 is inverted dT (3'-3' linkage, two 5' ends, no free 3' end)) [MB1429 poly(dT) 25 nt with 3' inverted dT]
[4]
  Kd: ~35 nM
